These results are taken from patent US9999679B2, “Aminofucoidan as a vector for fibrinolysis in thrombotic diseases” (INSTITUT NATIONAL DE LA SANTE ET DE LA RECHERCHE MEDICALE, priority 2013, dated 2018).

One data set has as its system mesenteric thrombi. The data set can be described thus: FeCl3-induced mesenteric vessel thrombosis, intravital imaging of thrombolysis. In kind it is in vivo. The conditions noted are these: mice, intravenous; 1 hour following FeCl3-induced injury (~45 min following treatment). The source says: The group has recently published the ability of intravital microscopy to follow the lysis of thrombus in vivo. Thus, validation of t-PA vectorization by amino-fucoidans with intravital microscopy has been carried out according to the protocols described in Boulaftali et al. (Boulaftali et al., 2011, Platelet protease nexin-1, a serpin that strongly influences fibrinolysis and thrombolysis. Circulation; Boulaftali et al., 2012, The mouse dorsal skinfold chamber as a model for the study of thrombolysis by intravital microscopy. Thromb Haemost).
The thrombus is induced by local application of iron oxide on exposed vessels in mice. Fluorescent t-PA or a mixture of amino-fucoidans and t-PA are intravenously injected after iron oxide local application The fluorescence of t-PA and thrombus lysis were followed by intravital transillumination of the mesenteric tissue.
More precisely, after anesthesia (100 mg/kg ketamine, 10 mg/kg xylazine) and laparotomy, mouse mesenteric vessels were exposed for induction of thrombosis and video-microscopic intravital observation. […] Platelet deposition and thrombus growth were monitored for 15 minutes following injury and fluorescent t-PA±DiLysine-fucoidan was then injected intravenously to thrombolysis of the partially occlusive-formed thrombi. […]

For data set [1] the following is noted: Product No 173 from American diagnostic; cited from earlier work.
A further data set concerns platelet-poor thrombus. Kind of data set: Ex vivo fibrinolysis of platelet-poor plasma clots (fluorescence release, clot weight loss). More on the design: species or system Human. Here is the method:
(§1) Human platelet-rich and -poor plasma (PRP and PPP) were obtained from citrated blood after two centrifugation steps: at 120 g for 15 minutes followed by a second centrifugation step at 1200 g for 12 min. PRP was adjusted to 3×10^8 platelets per mL with poor platelet plasma (PPP) and supplemented with 75 μg/mL of fluorescein isothiocyanate-fibrinogen. Clot formation was induced by adding 10 mmol/L CaCl2 in glass tubes and incubated for 1 hour at 37° C. After retraction, clots were washed in Hank's buffer (Sigma), rapidly dryed on an absorbent paper and weighed. To assess fibrinolysis, PRP or PPP clots were incubated in Hanks' buffer containing the vectorized t-PA complexes (corresponding to 10 UI of t-PA, or 1.72 μg/mL) for 1 h at room temperature. Clots were transferred in a new eppendorf containing 500 μl of Hank's buffer supplemented with 1 μM of human plasminogen. The kinetic of fibrinolysis was evaluated by measuring the release of fluorescence from the clot to the supernatant with a spectrofluorimeter (485/520 nm). […]
(§2) Aminofucoidans were used in variables molecular ratio to t-PA (10 UI (corresponding to 1.72 μg/ml): the 1/10 ratio was used for mono-amine fucoidans and 1/5 for poly-amine fucoidans. Evaluation criteria were the initial lysis kinetic (appearance of fluorescence in supernatant) and the final thrombus weight loss at 17H/37° C. incubation. […]

Data set [2] deals with thrombus performed in total blood, including Red Blood Cells. Kind of data set: Rotative thromboelastography (Rotem) lysis of thrombus in total blood. The conditions noted are these: plasma PAI-1 present, ratio (t-PA/fuco) 1/5 or 1/10. The source says:
Thromboelastography experiments have been carried out on a rotative thromboelastograph (Rotem®) as described in Boulaftali et al. (Boulaftali Y, Ho Tin Noe B, Pena A, Loyau S, Venisse L, Francois D, Richard B, Arocas V, Collet J P, Jandrot-Perrus M, Bouton M C. PLatelet Protease Nexin-1, a Serpin that Strongly Influences Fibrinolysis and Thrombolysis. Circulation. 2011; 123:1326-1334) and Mallet et al. (Mallet S V, Cox D J A. Thromboelastograph Analysis. British J of anaest. 1992; 69:307-313).
In a third series of in vitro experiments, the ability of aminofucoidans to accelerate the lysis of a thrombus performed in total blood, including Red Blood Cells, has been tested with rotative thromboelastography (Rotem®). In this experiment dilysine-fucoidan vectorized t-PA, in a ratio (t-PA/fuco) of 1/5 or 1/10 increased the thrombus lysis to 75% as compared to t-PA alone (55%). In this experiment, the plasma PAI-1 was present.

Another data set concerns platelet-rich thrombus. Kind of data set: Ex vivo fibrinolysis of platelet-rich plasma clots (fluorescence release, clot weight loss). More on the design: species or system Human. The settings on record: 17H/37° C. incubation; p<0.01; FIG. 1. On the procedure: as §1, §2

B1: t-PA: Single-chain recombinant tissue plasminogen activator, secreted by CHO cells transfected with human t-PA cDNA (American diagnostica) (protein, listed as Homo sapiens)
chain: MDAMKRGLCCVLLLCGAVFVSPSQEIHARFRRGARSYQVICRDEKTQMIYQQHQSWLRPVLRSNRVEYCWCNSGRAQCHSVPVKSCSEPRCFNGGTCQQALYFSDFVCQCPEGFAGKCCEIDTRATCYEDQGISYRGTWSTAESGAECTNWNSSALAQKPYSGRRPDAIRLGLGNHNYCRNPDRDSKPWCYVFKAGKYSSEFCSTPACSEGNSDCYFGNGSAYRGTHSLTESGASCLPWNSMILIGKVYTAQNPSAQALGLGKHNYCRNPDGDAKPWCHVLKNRRLTWEYCDVPSCSTCGLRQYSQPQFRIKGGLFADIASHPWQAAIFAKHRRSPGERFLCGGILISSCWILSAAHCFQERFPPHHLTVILGRTYRVVPGEEEQKFEVEKYIVHKEFDDDTYDNDIALLQLKSDSSRCAQESSVVRTVCLPPADLQLPDWTECELSGYGKHEALSPFYSERLKEAHVRLYPSSRCTSQHLLNRTVTDNMLCAGDTRSGGPQANLHDACQGDSGGPLVCLNDGRMTLVGIISWGLGCGQKDVPGVYTKVTNYLDWIRDNMRP
modifications: single-chain recombinant; /mol_type=“protein” /organism=“Homo sapiens”
In the case of B1, in the data set with mesenteric thrombi, the “vessel occlusion / perfusion of injured vessels” value is listed as “occlusive thrombosis of injured vessels had occurred in all 3 mice”. Also, the specific activity entry in data set [1] is “approximately 580 000 UI/mg”. Further, the “thrombi weight loss at 17H” value in the data set with platelet-poor thrombus was found to be 97%. Also, the thrombus lysis in data set [2] was 55%. Further, the “loss of platelet-rich thrombus weight” value in the data set on platelet-rich thrombus is given as 30%.
